Numbering of substitutions follows the chain as printed. Names may count otherwise.
B1: EAV nsp2-3 polyprotein (residues 261-1064 of EAV pp1a) with N-terminal HA tag, PLP2 mutant I353R (protein)
chain: GYNPPGDGACGYRCLAFMNGATVVSAGCSSDLWCDDELAYRVFQLSPTFTVTIPGGRVCPNAKYAMICDKQHWRVKRAKGVGLCLDESCFRGRCNCQRMSGPPPAPVSAAVLDHILEAATFGNVRVVTPEGQPRPVPAPRVRPSANSSGDVKDPAPVPPVPKPRTKLATPNPTQAPIPAPRTRLQGASTQEPLASAGVASDSAPKWRVAKTVYSSAERFRTELVQRARSVGDVLVQALPLKTPAVQRYTMTLKMMRSRFSWHCDVWYPLAVIACLLPIWPSLALLLSFAIGLIPSVGNNVVLTALLVSSANYVASMDHQCEGAACLALLEEEHYYRAVRWRPITGALSLVLNLLGQVGYVARSTFDAAYVPCTVFDLCSFAILYLCRNRCWRCFGRCVRVGPATHVLGSTGQRVSKLALIDLCDHFSKPTIDVVGMATGWSGCYTGTAAMERQCASTVDPHSFDQKKAGATVYLTPPVNSGSALQCLNVMWKRPIGSTVLGEQTGAVVTAVKSISFSPPCCVSTTLPTRPGVTVVDHALYNRLTASGVDPALLRVGQGDFLKLNPGFRLIGGWIYGICYFVLVVVSTFTCLPIKCGIGTRDPFCRRVFSVPVTKTQEHCHAGMCASAEGISLDSLGLTQLQSYWIAAVTSGLVILLVCHRLAISALDLLTLASPLVLLVFPWASVGLLLACSLAGAAVKIQLLATLFVNLFFPQATLVTMGYWACVAALAVYSLMGLRVKVNVPMCVTPAHFLLLARSAGQSREQMLRVSAAAPTNSLLGVARDCYVTGTTRLYIPKEGGMVFE
B2: EAV nsp2-3 polyprotein (residues 261-1064 of EAV pp1a) with N-terminal HA tag, PLP2 mutant T312A (protein)
chain: B1 chain with T52A, R93I
B3: EAV PLP2 domain (residues 261-392 of EAV pp1a) with C-terminal HIS6 purification tag, wild-type (protein)
chain: GYNPPGDGACGYRCLAFMNGATVVSAGCSSDLWCDDELAYRVFQLSPTFTVTIPGGRVCPNAKYAMICDKQHWRVKRAKGVGLCLDESCFRGICNCQRMSGPPPAPVSAAVLDHILEAATFGNVRVVTPEGQHHHHHH
B4: EAV PLP2 domain I353R mutant (Ile353Arg), recombinant enzyme (protein)
chain: B3 chain with I93R

Assays:
[1] = target: FLAG-tagged ubiquitin, P0CG48
FLAG-tagged ubiquitin, P0CG48, sequence (P0CG48 whole entry, looked up): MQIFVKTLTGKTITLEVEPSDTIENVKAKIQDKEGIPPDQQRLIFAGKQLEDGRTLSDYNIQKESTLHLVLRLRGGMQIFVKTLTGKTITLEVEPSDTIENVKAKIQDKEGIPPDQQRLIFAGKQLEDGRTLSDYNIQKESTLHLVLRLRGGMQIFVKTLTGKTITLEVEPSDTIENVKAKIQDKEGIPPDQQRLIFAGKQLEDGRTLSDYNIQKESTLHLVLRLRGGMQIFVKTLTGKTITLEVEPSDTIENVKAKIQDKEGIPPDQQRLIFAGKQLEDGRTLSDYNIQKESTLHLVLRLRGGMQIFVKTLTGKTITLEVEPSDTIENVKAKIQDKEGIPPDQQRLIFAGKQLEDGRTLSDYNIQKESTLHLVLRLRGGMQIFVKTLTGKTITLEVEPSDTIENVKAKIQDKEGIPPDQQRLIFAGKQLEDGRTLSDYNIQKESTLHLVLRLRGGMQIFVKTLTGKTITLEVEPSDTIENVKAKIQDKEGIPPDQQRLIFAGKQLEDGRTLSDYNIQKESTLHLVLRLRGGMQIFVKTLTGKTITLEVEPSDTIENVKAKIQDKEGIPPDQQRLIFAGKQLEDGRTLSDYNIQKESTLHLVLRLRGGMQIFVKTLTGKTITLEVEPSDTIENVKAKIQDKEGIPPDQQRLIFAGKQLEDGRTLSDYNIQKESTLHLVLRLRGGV

[2] = target: ubiquitin-aminomethylcoumarin, P0CG48
ubiquitin-aminomethylcoumarin, P0CG48, sequence (P0CG48 whole entry, looked up): as above

[3] = target: T1, RLRGG-AMC, C-terminal peptide motif of Ub and ISG15 coupled to aminomethylcoumarin
T1 chain: RLRGG

| Protein | density of the alpha-flag lane (amount of remaining ubiquitin conjugates) [1] | kcat/KM [2] [M⁻¹ s⁻¹] | kcat/KM [3] [M⁻¹ s⁻¹] | kcat/KM value for Ub-AMC against that of the wild-type [2] |
| --- | --- | --- | --- | --- |
| B1 | shows a density of the alpha-flag lane that is about twice as high as that of the T312A lane | – | – | – |
| B2 | a mutant such as T312A already shows a level of DUB-activity that leads to a significantly denser alpha-flag lane, which represents the amount of remaining ubiquitin conjugates, than that of the wild-type virus | – | – | – |
| B3 | – | 21000 ± 2000 | 48 ± 8 | – |
| B4 | – | 1100 ± 100 | 71 ± 8 | the kcat/KM value for Ub-AMC of the mutant I353R is 20 times lower than that of the wild-type virus |

— patent US20140154265
